Experimental data from patent EP4613780A1 (Adlai Nortye Biopharma Co., Ltd., dated 2025).

What was measured:
hCD28 (Octet R8 analyte) = hCD28 (Octet R8 analyte) (human, UniProt P10747 19-152, limits assumed); assay: BLI Octet R8, Protein A probe
[1] = target: T1, hCTLA-4 (Octet R8 analyte) (human, UniProt P16410 36-161, limits assumed); assay: BLI Octet R8, Protein A probe
T1 sequence (looked up): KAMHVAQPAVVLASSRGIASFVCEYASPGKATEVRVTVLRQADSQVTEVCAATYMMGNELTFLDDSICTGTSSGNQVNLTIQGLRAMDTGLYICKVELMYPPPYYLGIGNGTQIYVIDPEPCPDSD

[2] = target: hPD-L1 (Octet R8 analyte) (human, UniProt Q9NZQ7 19-238, limits assumed); assay: BLI Octet R8, Protein A probe
Chain of hPD-L1 (Octet R8 analyte) (Q9NZQ7 19-238 limits assumed): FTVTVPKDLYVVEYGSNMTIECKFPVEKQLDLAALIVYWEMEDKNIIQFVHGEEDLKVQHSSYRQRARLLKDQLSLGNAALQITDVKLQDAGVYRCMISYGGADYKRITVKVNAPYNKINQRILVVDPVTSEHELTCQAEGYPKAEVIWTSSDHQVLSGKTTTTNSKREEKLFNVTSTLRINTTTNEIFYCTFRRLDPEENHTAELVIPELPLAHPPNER

[3] = target: PD-L1 on TCR activator PD-L1-CHO cells (BPS bioscience) (UniProt Q9NZQ7 19-290, limits assumed); assay: cell-based or functional assay
Chain of PD-L1 on TCR activator PD-L1-CHO cells (BPS bioscience) (Q9NZQ7 19-290 limits assumed): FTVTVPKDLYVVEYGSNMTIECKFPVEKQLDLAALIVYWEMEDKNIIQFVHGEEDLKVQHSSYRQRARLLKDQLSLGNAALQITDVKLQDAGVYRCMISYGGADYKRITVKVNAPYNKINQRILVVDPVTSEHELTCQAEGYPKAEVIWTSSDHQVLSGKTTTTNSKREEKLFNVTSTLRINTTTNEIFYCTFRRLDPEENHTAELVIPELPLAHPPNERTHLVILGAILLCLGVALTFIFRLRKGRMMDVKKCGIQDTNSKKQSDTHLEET

[4] = target: T2, human PD-L1 protein (Acro, PD1-H5258) (human, UniProt Q9NZQ7 19-238); assay: ELISA, coated human PD-L1
T2 construct: coated on the ELISA plate; also called human PDL1 antigen
T2 sequence (Q9NZQ7 19-238 limits assumed): as the sequence (Q9NZQ7 19-238 limits assumed) above

[5] = target: T3, human CD28 protein (Acro, CD8-H525a) (human, UniProt P10747 19-152); assay: ELISA, coated human CD28
T3 construct: coated on the ELISA plate; also called human CD28 antigen
T3 sequence (P10747 19-152 limits assumed): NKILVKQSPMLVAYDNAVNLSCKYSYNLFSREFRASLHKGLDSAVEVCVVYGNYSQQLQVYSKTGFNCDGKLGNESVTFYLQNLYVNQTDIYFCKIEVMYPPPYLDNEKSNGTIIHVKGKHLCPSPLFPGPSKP

[6] = target: T4, human CTLA4 protein (Acro, CT4-H52H9) (human, UniProt P16410 36-161); assay: ELISA, coated human CTLA4
T4 construct: coated on the ELISA plate; also called human CTLA4 antigen
T4 sequence (looked up): T1 sequence (looked up)

Chain of hCD28 (Octet R8 analyte) (P10747 19-152 limits assumed): as above

B1: antibody Abs-16 (sugemalimab) (antibody, human IgG4 S228P, lambda, V domains shown)
VH: EVQLLESGGGLVQPGGSLRLSCAASGFTFSSYAMSWVRQAPGKGLEWVSGISGSGGFTYYADSVKGRFTISRDNSKNTLYLQMNSLRAEDTAVYYCAKPPRGYNYGPFDYWGQGTLVTVSS
VL: SYVLTQPPSVSVAPGQTARITCGGNNIGSKSVHWYQQKPGQAPVLVVYDDSDRPSGIPERFSGSNSGNTATLTISRVEAGDEADYYCQVWDSSSDHVVFGGGTKLTVLG
notes: anti-PD-L1 control antibody; also called Sugemalimab (CS1001)
- binding result (hCD28 (Octet R8 analyte)): no binding (tested: 50nM)
- binding result [1]: no binding (tested: 50nM)
- Kd [2]: 0.581 nM
- Jurkat-NFAT-Luc/CHO-PDL1 EC50 [3]: 0.09 nM
- Top induction relative to 10nM sugemalimab [3]: 100%
- EC50 [4]: 0.0767 nM
- binding result [5]: no binding
- binding result [6]: no binding
